Test results: US20150344570A1 (published 2015)
Numbering of substitutions follows the chain as printed.

Legend:
Protein A [1] = biological target: T1, Protein A (UniProt P38507 37-327); assay: Protein A column chromatography, stepwise pH elution; eluted fractions analysed by cation exchange chromatography (peak area %)
T1 construct: Commercial chromatography resin; also called rProtein A Sepharose Fast Flow (GE Healthcare)

Protein A [2] = biological target: T2, Protein A (UniProt P38507 37-327); assay: Protein A affinity chromatography, stepwise pH elution
T2 construct: bought recombinant resin; also called rProtein A Sepharose Fast Flow
Description: Samples purified by batchwise elution were used as controls.

Protein A [3] = biological target: T2, Protein A; assay: Protein A affinity chromatography, elution at pH 3.6
Protein A [4] = biological target: T2, Protein A; assay: Protein A affinity chromatography, elution at pH 3.6 and pH 2.7
Protein A [5] = biological target: T1, Protein A; assay: Protein A column chromatography, pH 3.6 elution; eluted fraction analysed by cation exchange chromatography (peak area %)
Description: The quantity of CM to be loaded was adjusted in a way that the quantity of the loaded antibody is 20 mg/ml resine. Fractions eluted under each condition were collected and the components contained in each elution fraction were identified by cation exchange chromatography analysis. […] Samples purified by batchwise elution were used as controls.
The values represent the area of elution peak expressed in percentage.

FcgRIIaH [6] = biological target: T3, FcgRIIaH (human, UniProt P12318 34-217); assay: SPR (Biacore), antibody captured on chip, FcgR extracellular domain as analyte
T3 construct: extracellular domain; also called FcγRIIa H; FcgRIIa type H; not shown: His tag attached to the C terminus
T3 sequence (looked up): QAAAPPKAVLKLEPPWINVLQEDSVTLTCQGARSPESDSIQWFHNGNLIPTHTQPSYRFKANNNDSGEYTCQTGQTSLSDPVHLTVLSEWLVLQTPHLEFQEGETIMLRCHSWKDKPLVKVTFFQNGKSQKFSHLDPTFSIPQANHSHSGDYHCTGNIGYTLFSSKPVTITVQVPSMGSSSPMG
Description: (§1) Specifically, H240-Kn204 resulting from the introduction of L234Y/K290Y/Y296W into H240-Kn033, H240-Hl211 resulting from the introduction of S239D/A330M/K334V into H240-Hl033, H240-Kn205 resulting from the introduction of L234Y/Y296W/S298C into H240-Kn033, and H240-Hl212 resulting from the introduction of S239D/K334V into H240-Hl033 were produced according to the method of Reference Example 1. H240-Kn204/H240-Hl211/L73-k0 and H240-Kn205/H240-Hl212/L73-k0 were prepared according to the method of Reference Example 1, by combining H240-Kn204 as one of the H chains and L73-k0 as the L chains with H240-Hl211 as the other H chain, and by combining H240-Kn205 as one of the H chains and L73-k0 as the L chains with H240-Hl212 as the other H chain, and then expressing them. The binding of the prepared variants to FcgRIa, FcgRIIaR, FcgRIIaH, FcgRIIb, FcgRIIIaF, and FcgRIIIaV was measured according to the method of Reference Example 8.
(§2) Analysis of interaction between objective antibody and the FcγR was carried out using Biacore T100 (GE Healthcare), Biacore T200, Biacore A100, and Biacore 4000. HBS-EP+ (GE Healthcare) was used as the running buffer, and the measurement temperature was set to 25° C. Chips produced by immobilizing the antigen peptide by the amine coupling method to a Series S sensor Chip CM5 (GE Healthcare), chips produced by allowing preliminarily biotinylated antigen peptides to interact with and immobilize onto a Series S Sensor Chip SA (certified) (GE Healthcare), chips produced by immobilizing Protein L (ACTIGEN, BioVision) to Series S Sencor Chip CM5 (GE Healthcare), or chips produced by immobilizing Protein A/G (Thermo Scientific) to Series S Sencor Chip CM5 (GE Healthcare) were used. Antibodies of interest were captured onto these chips, and allowed to interact to each FcγR diluted with running buffer. To regenerate and repeatedly use the chip, the antibodies captured onto the chip were washed off by reacting 10 mM glycine-HCl, pH 1.5.

FcgRIIb [7] = biological target: T4, FcgRIIb (human, UniProt P31994 43-217); assay: as above
T4 construct: extracellular domain; also called FcγRIIb; 2b; not shown: His tag attached to the C terminus
T4 sequence (looked up): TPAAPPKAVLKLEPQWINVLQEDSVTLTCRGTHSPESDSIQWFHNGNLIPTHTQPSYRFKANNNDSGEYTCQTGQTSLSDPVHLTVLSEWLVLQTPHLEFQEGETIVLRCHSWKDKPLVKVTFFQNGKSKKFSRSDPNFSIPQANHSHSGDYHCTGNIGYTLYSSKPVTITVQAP
Description: as §1, §2

FcgRIa = biological target: T5, FcgRIa (human, UniProt P12314 16-292); assay: as above
T5 construct: extracellular domain; also called FcγRIa; FcγRI (CD64); not shown: His tag attached to the C terminus
Description: as §1, §2

FcgRIIIaF [8] = biological target: T6, FcgRIIIaF (human, UniProt P08637 17-208); assay: as above
T6 construct: extracellular domain; also called FcγRIIIa F; 3aF; not shown: His tag attached to the C terminus
Description: as §1, §2
T6 sequence (P08637 17-208): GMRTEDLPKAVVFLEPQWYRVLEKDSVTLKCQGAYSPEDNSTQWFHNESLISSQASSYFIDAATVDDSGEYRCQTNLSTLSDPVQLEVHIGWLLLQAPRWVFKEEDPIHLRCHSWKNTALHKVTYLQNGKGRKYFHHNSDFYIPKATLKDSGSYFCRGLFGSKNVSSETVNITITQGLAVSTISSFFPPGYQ

FcgRIIaR [9] = biological target: T7, FcgRIIaR (human, UniProt P12318 34-217); assay: as above
T7 construct: extracellular domain; also called FcγRIIa R; FcgRIIa type R; not shown: His tag attached to the C terminus
T7 sequence (looked up): T3 sequence (looked up) with H134R
Description: as §1, §2

FcgRIIIaV [10] = biological target: T8, FcgRIIIaV (human, UniProt P08637 17-208); assay: as above
T8 construct: extracellular domain; also called FcγRIIIa V; 3aV; not shown: His tag attached to the C terminus
Description: as §1, §2

FcgRIIb [11] = biological target: T9, FcgRIIb (human, UniProt P31994 43-217); assay: SPR (Biacore); KD of H240-Kn033/H240-Hl033/L73-k0 divided by KD of this variant
T9 construct: extracellular domain; also called FcγRIIb; 2b; not shown: His tag attached to the C terminus
T9 sequence (looked up): T4 sequence (looked up)

FcgRIIaH [12] = biological target: T10, FcgRIIaH (human, UniProt P12318 34-217); assay: as above
T10 construct: extracellular domain; also called FcγRIIa H; FcgRIIa type H; not shown: His tag attached to the C terminus
T10 sequence (looked up): T3 sequence (looked up)

FcgRIIaR [13] = biological target: T11, FcgRIIaR (human, UniProt P12318 34-217); assay: as above
T11 construct: extracellular domain; also called FcγRIIa R; FcgRIIa type R; not shown: His tag attached to the C terminus
T11 sequence (looked up): T3 sequence (looked up) with H134R

FcgRIIIaF [14] = biological target: T12, FcgRIIIaF (human, UniProt P08637 17-208); assay: as above
T12 construct: extracellular domain; also called FcγRIIIa F; 3aF; not shown: His tag attached to the C terminus
T12 sequence (P08637 17-208): as above

FcgRIIIaV [15] = biological target: T8, FcgRIIIaV; assay: as above

T8 sequence (P08637 17-208 F176V limits assumed): as the sequence (P08637 17-208) above, with F160V counted along it
T5 sequence (P12314 16-292): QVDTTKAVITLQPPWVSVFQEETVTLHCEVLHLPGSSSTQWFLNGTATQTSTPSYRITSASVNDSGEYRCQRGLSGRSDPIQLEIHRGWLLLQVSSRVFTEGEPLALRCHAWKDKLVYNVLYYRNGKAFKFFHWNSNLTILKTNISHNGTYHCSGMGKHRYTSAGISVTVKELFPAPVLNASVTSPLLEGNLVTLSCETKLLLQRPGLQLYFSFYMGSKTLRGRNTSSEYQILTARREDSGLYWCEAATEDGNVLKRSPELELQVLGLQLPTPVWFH

B1: J142-z73/L180-k (antibody, human IgG4 S228P, kappa)
heavy: QVQLVQSGSELKKPGASVKVSCKASGYTFTDNNMDWVRQAPGQGLEWMGDINTRSGGSIYNEEFQDRVTMTIDKSTGTAYMELSSLRSEDTAVYYCARRRSYGYYHDEWGEGTLVTVSSASTKGPSVFPLAPCSRSTSESTAALGCLVKDYFPEPVTVSWNSGALTSGVHTFPAVLQSSGLYSLSSVVTVPSSSLGTKTYTCNVDHKPSNTKVDKRVESKYGPPCPPCPAPEFLGGPSVFLFPPKPKDTLMISRTPEVTCVVVDVSQEDPEVQFNWYVDGVEVHNAKTKPREEQFNSTYRVVSVLTVLHQDWLNGKEYKCKVSNKGLPSSIEKTISKAKGQPREPQVYTLPPSQEEMTKNQVSLTCLVKGFYPSDIAVEWESNGQPENNYKTTPPVLDSDGSFFLYSRLTVDKSRWQEGNVFSCSVMHEALHNRFTQESLSLSP
light: DIQMTQSPSSLSASVGDRVTITCKASRNIERNLAWYQQKPGQAPELLIYSASRKESGVPDRFSGSRYGTDFTLTISSLQPEDLATYYCQQYYSPPLTFGGGTKVEIKRTVAAPSVFIFPPSDEQLKSGTASVVCLLNNFYPREAKVQWKVDNALQSGNSQESVTEQDSKDSTYSLSSTLTLSKADYEKHKVYACEVTHQGLSSPVTKSFNRGEC
notes: also called homomeric antibody against FX
- binding result (Protein A [1]): no binding

B2: J142-z72/L180-k (antibody, human IgG4 S228P, kappa)
heavy: B1 heavy with E438K
light: B1 light
notes: also called homomeric antibody J142-z72; homomeric antibody against FX
- binding result (Protein A [2]): no binding

B3: J300-z107/L210-k (antibody, human IgG4 S228P, kappa)
heavy: B1 heavy with T69I, I72V, G77D, Y95H, R100K, H106L, K198Q, F295Y, R408K, F435Y
light: B1 light with L83I, Y92S
notes: also called homomeric antibody J300-z107
- binding result (Protein A [3]): no binding

B4: J142-z73/L180-k (antibody, human IgG4 S228P, kappa)
heavy: B1 heavy
light: B1 light
notes: also called homomeric antibody J142-z73
- binding result (Protein A [4]): no binding

B5: J300-z107/L210-k (antibody, human IgG4 S228P, kappa)
heavy: B1 heavy with T69I, I72V, G77D, Y95H, R100K, H106L, K198Q, F295Y, R408K, F435Y
light: B1 light with L83I, Y92S
notes: Homomeric by-product in the culture medium of Q407-z106/J300-z107/L210-k; also called homomeric antibody against FX
- binding result (Protein A [5]): no binding

B6: H240-Kn125/H240-Hl076/L73-k0 (antibody, human IgG1, kappa)
heavy 1: QDQLVQSGAEVKKPGASVKVSCKASGFNIKDTYIQWVRQAPGQGLEWMGRIDPLRKQTKYREKFEGRVTITADTSTNTAYMELSSLRSEDTAVYYCVRSGREFDYWGQGTLVTVSSASTKGPSVFPLAPSSKSTSGGTAALGCLVKDYFPEPVTVSWNSGALTSGVHTFPAVLQSSGLYSLSSVVTVPSSSLGTQTYICNVNHKPSNTKVDKKVEPKSCDKTHTCPPCPAPEYQWGPMVFLFPPKPKDTLMISRTPEVTCVVVDVSDEEPEVKFNWYVDGVEVHNAKTKPREEQYNATYRVVSVLTVLHQDWLNGKEYKCKVSNKALPAPIEKTISKAKGQPREPQVCTLPPSRDELTKNQVSLWCLVKGFYPSDIAVEWESNGQPENNYKTTPPVLDSDGSFFLYSKLTVDKSRWQQGNVFSCSVMHEALHNHYTQKSLSLSP
heavy 2: QDQLVQSGAEVKKPGASVKVSCKASGFNIKDTYIQWVRQAPGQGLEWMGRIDPLRKQTKYREKFEGRVTITADTSTNTAYMELSSLRSEDTAVYYCVRSGREFDYWGQGTLVTVSSASTKGPSVFPLAPSSKSTSGGTAALGCLVKDYFPEPVTVSWNSGALTSGVHTFPAVLQSSGLYSLSSVVTVPSSSLGTQTYICNVNHKPSNTKVDKKVEPKSCDKTHTCPPCPAPELLGGPSVFLFPPKPKDTLMISRTPEVTCVVVDVSHEEPEVKFNWYVDGVEVHNAKTKPREEQYNSTYRVVSVLTVLHQDWLNGKEYKCKVSNDALPMPIEETISKAKGQPREPQVYTLPPSRCELTKNQVSLSCAVKGFYPSDIAVEWESNGQPENNYKTTPPVLDSDGSFFLVSKLTVDKSRWQQGNVFSCSVMHEALHNHYTQKSLSLSP
light: DIQMTQSPSSLSASVGDRVTITCRASQDIHKYIAWYQQKPGQAPRLLIQYTSTLQPGVPSRFSGSGSGTDYTFTISSLQPEDIATYYCLQYEQLRTFGGGTKVEIKRTVAAPSVFIFPPSDEQLKSGTASVVCLLNNFYPREAKVQWKVDNALQSGNSQESVTEQDSKDSTYSLSSTLTLSKADYEKHKVYACEVTHQGLSSPVTKSFNRGEC
- Kd (FcgRIIaH [6]): 140 nM
- Kd (FcgRIIb [7]): 3900 nM
- Kd (FcgRIa): 0.066 nM
- Kd (FcgRIIIaF [8]): 1.3 nM
- Kd (FcgRIIaR [9]): 420 nM

B7: H240-Kn125/H240-Hl076/L73-k0 (antibody, human IgG1, kappa)
heavy 1: B6 heavy 1
heavy 2: B6 heavy 2
light: B6 light
notes: Anti-epiregulin heterodimerized IgG1, knobs-into-holes
- Kd (FcgRIIIaV [10]): 0.26 nM
- fold 2b (FcgRIIb [11]): 0.8 fold
- fold 2aH (FcgRIIaH [12]): 3.7 fold
- fold 2aR (FcgRIIaR [13]): 1.8 fold
- fold 3aF (FcgRIIIaF [14]): 223 fold
- fold 3aV (FcgRIIIaV [15]): 185 fold
